Data from the supplement of paper PMC9112550, “Optimization of the antimicrobial peptide Bac7 by deep mutational scanning” (BMC Biology, 2022).

Tested on: Escherichia coli TOP10
Assay: shrunken log2 fold change of peptide-encoding DNA abundance (4.5 h post-induction vs induction); higher = less antimicrobial activity (less host growth inhibition)
Conditions: time post-induction: 4.5 h; library: site-saturation at positions 5, 18, 19, 20
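Also: peptides expressed intracellularly from a pBAD plasmid library in pooled LB shake-flask culture, induced with 0.3% L-arabinose, DNA abundance read by NGS, three biological replicates, DESeq2 with apeglm shrinkage.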

## RRIRLRPPRLPRPRPRPSLMPRP
  shrunken log2 fold change: 0.126

## RRIRLRPPRLPRPRPRPSLWPRP
  shrunken log2 fold change: 0.062

## RRIRLRPPRLPRPRPRPSMTPRP
  shrunken log2 fold change: 1.72

## RRIRLRPPRLPRPRPRPSPGPRP
  shrunken log2 fold change: 0.0266

## RRIRLRPPRLPRPRPRPSSDPRP
  shrunken log2 fold change: 0.128

## RRIRLRPPRLPRPRPRPSSVPRP
  shrunken log2 fold change: 0.0713

## RRIRLRPPRLPRPRPRPSVFPRP
  shrunken log2 fold change: -0.364

## RRIRLRPPRLPRPRPRPSVNPRP
  shrunken log2 fold change: -0.822

## RRIRLRPPRLPRPRPRPSVQPRP
  shrunken log2 fold change: -0.57

## RRIRLRPPRLPRPRPRPSVVPRP
  shrunken log2 fold change: -0.196

## RRIRLRPPRLPRPRPRPSWEPRP
  shrunken log2 fold change: 0.0244

## RRIRLRPPRLPRPRPRPSWHPRP
  shrunken log2 fold change: 0.25

## RRIRLRPPRLPRPRPRPSWQPRP
  shrunken log2 fold change: -0.0855

## RRIRLRPPRLPRPRPRPSYHPRP
  shrunken log2 fold change: -0.686

## RRIRLRPPRLPRPRPRPTARPRP
  shrunken log2 fold change: 1.13

## RRIRLRPPRLPRPRPRPTAYPRP
  shrunken log2 fold change: -0.047

## RRIRLRPPRLPRPRPRPTCHPRP
  shrunken log2 fold change: 0.000681

## RRIRLRPPRLPRPRPRPTDVPRP
  shrunken log2 fold change: -0.524

## RRIRLRPPRLPRPRPRPTECPRP
  shrunken log2 fold change: -0.243

## RRIRLRPPRLPRPRPRPTEVPRP
  shrunken log2 fold change: -0.126

## RRIRLRPPRLPRPRPRPTFKPRP
  shrunken log2 fold change: -0.0433

## RRIRLRPPRLPRPRPRPTHFPRP
  shrunken log2 fold change: 0.362

## RRIRLRPPRLPRPRPRPTIIPRP
  shrunken log2 fold change: 0.0804

## RRIRLRPPRLPRPRPRPTINPRP
  shrunken log2 fold change: -0.524

## RRIRLRPPRLPRPRPRPTLFPRP
  shrunken log2 fold change: 0.0945

## RRIRLRPPRLPRPRPRPTLTPRP
  shrunken log2 fold change: 0.26

## RRIRLRPPRLPRPRPRPTNDPRP
  shrunken log2 fold change: -0.288

## RRIRLRPPRLPRPRPRPTNIPRP
  shrunken log2 fold change: -0.421

## RRIRLRPPRLPRPRPRPTNPPRP
  shrunken log2 fold change: -0.348

## RRIRLRPPRLPRPRPRPTPHPRP
  shrunken log2 fold change: 0.322

## RRIRLRPPRLPRPRPRPTQSPRP
  shrunken log2 fold change: 0.144

## RRIRLRPPRLPRPRPRPTTSPRP
  shrunken log2 fold change: -0.0271

## RRIRLRPPRLPRPRPRPTTTPRP
  shrunken log2 fold change: 0.00266

## RRIRLRPPRLPRPRPRPTVRPRP
  shrunken log2 fold change: -0.107

## RRIRLRPPRLPRPRPRPTYRPRP
  shrunken log2 fold change: -0.266

## RRIRLRPPRLPRPRPRPVCEPRP
  shrunken log2 fold change: 0.39

## RRIRLRPPRLPRPRPRPVDWPRP
  shrunken log2 fold change: 0.252

## RRIRLRPPRLPRPRPRPVDYPRP
  shrunken log2 fold change: -0.434

## RRIRLRPPRLPRPRPRPVHVPRP
  shrunken log2 fold change: -0.0937

## RRIRLRPPRLPRPRPRPVMCPRP
  shrunken log2 fold change: 0.142

## RRIRLRPPRLPRPRPRPVNHPRP
  shrunken log2 fold change: 0.197

## RRIRLRPPRLPRPRPRPVNVPRP
  shrunken log2 fold change: -0.00443

## RRIRLRPPRLPRPRPRPVQCPRP
  shrunken log2 fold change: 0.079

## RRIRLRPPRLPRPRPRPVSIPRP
  shrunken log2 fold change: -0.321

## RRIRLRPPRLPRPRPRPVSRPRP
  shrunken log2 fold change: 0.0317

## RRIRLRPPRLPRPRPRPVWEPRP
  shrunken log2 fold change: 0.0556

## RRIRLRPPRLPRPRPRPVWRPRP
  shrunken log2 fold change: 0.299

## RRIRLRPPRLPRPRPRPVYMPRP
  shrunken log2 fold change: -0.283

## RRIRLRPPRLPRPRPRPVYQPRP
  shrunken log2 fold change: -0.0597

## RRIRLRPPRLPRPRPRPVYVPRP
  shrunken log2 fold change: -0.367

## RRIRLRPPRLPRPRPRPWAQPRP
  shrunken log2 fold change: 0.249

## RRIRLRPPRLPRPRPRPWCGPRP
  shrunken log2 fold change: -0.0859

## RRIRLRPPRLPRPRPRPWCSPRP
  shrunken log2 fold change: -1.02

## RRIRLRPPRLPRPRPRPWCWPRP
  shrunken log2 fold change: 0.0542

## RRIRLRPPRLPRPRPRPWDPPRP
  shrunken log2 fold change: -0.125

## RRIRLRPPRLPRPRPRPWDRPRP
  shrunken log2 fold change: -0.0145

## RRIRLRPPRLPRPRPRPWFNPRP
  shrunken log2 fold change: -0.388

## RRIRLRPPRLPRPRPRPWGLPRP
  shrunken log2 fold change: 0.171

## RRIRLRPPRLPRPRPRPWGQPRP
  shrunken log2 fold change: -0.0472

## RRIRLRPPRLPRPRPRPWGWPRP
  shrunken log2 fold change: 0.264

## RRIRLRPPRLPRPRPRPWIKPRP
  shrunken log2 fold change: -0.187

## RRIRLRPPRLPRPRPRPWIPPRP
  shrunken log2 fold change: -0.0167

## RRIRLRPPRLPRPRPRPWMCPRP
  shrunken log2 fold change: -0.492

## RRIRLRPPRLPRPRPRPWMYPRP
  shrunken log2 fold change: -0.0417

## RRIRLRPPRLPRPRPRPWNIPRP
  shrunken log2 fold change: -0.176

## RRIRLRPPRLPRPRPRPWNKPRP
  shrunken log2 fold change: -0.436

## RRIRLRPPRLPRPRPRPWNPPRP
  shrunken log2 fold change: -0.059

## RRIRLRPPRLPRPRPRPWRGPRP
  shrunken log2 fold change: 0.277

## RRIRLRPPRLPRPRPRPWSAPRP
  shrunken log2 fold change: 0.539

## RRIRLRPPRLPRPRPRPWSSPRP
  shrunken log2 fold change: -0.469

## RRIRLRPPRLPRPRPRPWTNPRP
  shrunken log2 fold change: 0.0169

## RRIRLRPPRLPRPRPRPWVVPRP
  shrunken log2 fold change: 0.0937

## RRIRLRPPRLPRPRPRPWWEPRP
  shrunken log2 fold change: 0.176

## RRIRLRPPRLPRPRPRPWWKPRP
  shrunken log2 fold change: -0.198

## RRIRLRPPRLPRPRPRPWWRPRP
  shrunken log2 fold change: 0.197

## RRIRLRPPRLPRPRPRPYAIPRP
  shrunken log2 fold change: -0.233

## RRIRLRPPRLPRPRPRPYDCPRP
  shrunken log2 fold change: 0.0192

## RRIRLRPPRLPRPRPRPYEQPRP
  shrunken log2 fold change: -0.104

## RRIRLRPPRLPRPRPRPYESPRP
  shrunken log2 fold change: -0.957

## RRIRLRPPRLPRPRPRPYFGPRP
  shrunken log2 fold change: -0.218

## RRIRLRPPRLPRPRPRPYGIPRP
  shrunken log2 fold change: -0.00489

## RRIRLRPPRLPRPRPRPYHDPRP
  shrunken log2 fold change: -0.131

## RRIRLRPPRLPRPRPRPYHGPRP
  shrunken log2 fold change: -0.278

## RRIRLRPPRLPRPRPRPYHKPRP
  shrunken log2 fold change: -0.304

## RRIRLRPPRLPRPRPRPYHRPRP
  shrunken log2 fold change: 0.0373

## RRIRLRPPRLPRPRPRPYHWPRP
  shrunken log2 fold change: -0.188

## RRIRLRPPRLPRPRPRPYKRPRP
  shrunken log2 fold change: -0.0165

## RRIRLRPPRLPRPRPRPYLAPRP
  shrunken log2 fold change: -0.756

## RRIRLRPPRLPRPRPRPYLNPRP
  shrunken log2 fold change: -1.13

## RRIRLRPPRLPRPRPRPYLSPRP
  shrunken log2 fold change: -0.0116

## RRIRLRPPRLPRPRPRPYMCPRP
  shrunken log2 fold change: -0.252

## RRIRLRPPRLPRPRPRPYNHPRP
  shrunken log2 fold change: -0.669

## RRIRLRPPRLPRPRPRPYNVPRP
  shrunken log2 fold change: -0.119

## RRIRLRPPRLPRPRPRPYNWPRP
  shrunken log2 fold change: -0.0937

## RRIRLRPPRLPRPRPRPYNYPRP
  shrunken log2 fold change: -0.439

## RRIRLRPPRLPRPRPRPYPCPRP
  shrunken log2 fold change: 0.0537

## RRIRLRPPRLPRPRPRPYPRPRP
  shrunken log2 fold change: -0.0678

## RRIRLRPPRLPRPRPRPYQKPRP
  shrunken log2 fold change: 0.00934

## RRIRLRPPRLPRPRPRPYRDPRP
  shrunken log2 fold change: 0.0076

## RRIRLRPPRLPRPRPRPYREPRP
  shrunken log2 fold change: -0.134

## RRIRLRPPRLPRPRPRPYRLPRP
  shrunken log2 fold change: -0.0305

## RRIRLRPPRLPRPRPRPYRSPRP
  shrunken log2 fold change: -0.0017

## RRIRLRPPRLPRPRPRPYSEPRP
  shrunken log2 fold change: -1.71

## RRIRLRPPRLPRPRPRPYSGPRP
  shrunken log2 fold change: -0.103

## RRIRLRPPRLPRPRPRPYSPPRP
  shrunken log2 fold change: -0.299

## RRIRLRPPRLPRPRPRPYSVPRP
  shrunken log2 fold change: 0.0375

## RRIRLRPPRLPRPRPRPYTLPRP
  shrunken log2 fold change: -0.143

## RRIRLRPPRLPRPRPRPYVDPRP
  shrunken log2 fold change: -0.0393

## RRIRLRPPRLPRPRPRPYWWPRP
  shrunken log2 fold change: 0.0346

## RRIRLRPPRLPRPRPRPYYNPRP
  shrunken log2 fold change: -1.18

## RRIRLRPPRLPRPRPRPYYYPRP
  shrunken log2 fold change: -1.03

## RRIRMRPPRLPRPRPRPAATPRP
  shrunken log2 fold change: 0.573

## RRIRMRPPRLPRPRPRPACHPRP
  shrunken log2 fold change: 0.151

## RRIRMRPPRLPRPRPRPAECPRP
  shrunken log2 fold change: 0.042

## RRIRMRPPRLPRPRPRPAFAPRP
  shrunken log2 fold change: 0.738

## RRIRMRPPRLPRPRPRPAFEPRP
  shrunken log2 fold change: 0.763

## RRIRMRPPRLPRPRPRPAFTPRP
  shrunken log2 fold change: 0.251

## RRIRMRPPRLPRPRPRPAGHPRP
  shrunken log2 fold change: 1.24

## RRIRMRPPRLPRPRPRPAGKPRP
  shrunken log2 fold change: 0.461

## RRIRMRPPRLPRPRPRPAHAPRP
  shrunken log2 fold change: 1.16

## RRIRMRPPRLPRPRPRPAIFPRP
  shrunken log2 fold change: 0.243

## RRIRMRPPRLPRPRPRPAIRPRP
  shrunken log2 fold change: -0.0476

## RRIRMRPPRLPRPRPRPAKVPRP
  shrunken log2 fold change: 0.303

## RRIRMRPPRLPRPRPRPANFPRP
  shrunken log2 fold change: -0.000946

## RRIRMRPPRLPRPRPRPANLPRP
  shrunken log2 fold change: 0.013

## RRIRMRPPRLPRPRPRPAPKPRP
  shrunken log2 fold change: 0.675

## RRIRMRPPRLPRPRPRPAQPPRP
  shrunken log2 fold change: 0.586

## RRIRMRPPRLPRPRPRPARDPRP
  shrunken log2 fold change: 1.65

## RRIRMRPPRLPRPRPRPARHPRP
  shrunken log2 fold change: 0.974

## RRIRMRPPRLPRPRPRPASWPRP
  shrunken log2 fold change: 0.901

## RRIRMRPPRLPRPRPRPATTPRP
  shrunken log2 fold change: 0.538

## RRIRMRPPRLPRPRPRPATVPRP
  shrunken log2 fold change: 0.323

## RRIRMRPPRLPRPRPRPAWNPRP
  shrunken log2 fold change: 0.43

## RRIRMRPPRLPRPRPRPAYDPRP
  shrunken log2 fold change: -0.0572

## RRIRMRPPRLPRPRPRPAYWPRP
  shrunken log2 fold change: 0.509

## RRIRMRPPRLPRPRPRPCAAPRP
  shrunken log2 fold change: 2.26

## RRIRMRPPRLPRPRPRPCAVPRP
  shrunken log2 fold change: 0.296

## RRIRMRPPRLPRPRPRPCCYPRP
  shrunken log2 fold change: -0.427

## RRIRMRPPRLPRPRPRPCDMPRP
  shrunken log2 fold change: 0.195

## RRIRMRPPRLPRPRPRPCDQPRP
  shrunken log2 fold change: -0.134

## RRIRMRPPRLPRPRPRPCEQPRP
  shrunken log2 fold change: 0.195

## RRIRMRPPRLPRPRPRPCESPRP
  shrunken log2 fold change: -0.0088

## RRIRMRPPRLPRPRPRPCGIPRP
  shrunken log2 fold change: -0.0517

## RRIRMRPPRLPRPRPRPCGTPRP
  shrunken log2 fold change: 1.97

## RRIRMRPPRLPRPRPRPCHTPRP
  shrunken log2 fold change: 0.0555

## RRIRMRPPRLPRPRPRPCIKPRP
  shrunken log2 fold change: 0.0207

## RRIRMRPPRLPRPRPRPCITPRP
  shrunken log2 fold change: 0.156

## RRIRMRPPRLPRPRPRPCKNPRP
  shrunken log2 fold change: 4.11

## RRIRMRPPRLPRPRPRPCMQPRP
  shrunken log2 fold change: -0.143

## RRIRMRPPRLPRPRPRPCPQPRP
  shrunken log2 fold change: 0.0219
